From patent US5773001 (American Cyanamid Company, dated 1998)
Read-outs that look alike come from different tables or passages of the source. Each block holds one molecule with its values, some of them ahead of it.

What was measured:
[1] = target: CD33 antigen (human) (UniProt P20138)
[2] = target: CD33 antigen (human) (UniProt P20138); assay: competition with 125I-labelled native antibody on HEL 92.1.7 cells; IC50 (reference) / IC50 (sample)
[3] = target: CD33 antigen (human) (UniProt P20138); remark: listed apart in the source
[4] = target: CD33 antigen (human) (UniProt P20138); remark: listed apart in the source
[5] = target: CD33 antigen (human) (UniProt P20138); remark: listed apart in the source
[6] = target: CD33 antigen (human) (UniProt P20138); remark: listed apart in the source
[7] = target: CD33 antigen (human) (UniProt P20138); remark: listed apart in the source
[8] = target: CD33 antigen (human) (UniProt P20138); remark: listed apart in the source
[9] = target: CD33 antigen (human) (UniProt P20138); remark: listed apart in the source
[10] = target: CD33 antigen (human) (UniProt P20138); remark: listed apart in the source
[11] = target: CD33 antigen (human) (UniProt P20138); remark: listed apart in the source
[12] = target: CD33 antigen (human) (UniProt P20138); remark: listed apart in the source
[13] = target: CD33 antigen (human) (UniProt P20138); remark: listed apart in the source
[14] = target: CD33 antigen (human) (UniProt P20138); assay: competition with 125I-labelled native antibody on HEL 92.1.7 cells; IC50 (reference) / IC50 (sample); remark: listed apart in the source
[15] = target: CD33 antigen (human) (UniProt P20138); remark: listed apart in the source
[16] = target: CD33 antigen (human) (UniProt P20138); remark: listed apart in the source
[17] = target: CD33 antigen (human) (UniProt P20138); remark: listed apart in the source
[18] = target: CD33 antigen (human) (UniProt P20138); remark: listed apart in the source
[19] = target: CD33 antigen (human) (UniProt P20138); remark: listed apart in the source
[20] = target: CD33 antigen (human) (UniProt P20138); remark: listed apart in the source
[21] = target: CD33 antigen (human) (UniProt P20138); remark: listed apart in the source
[22] = target: CD33 antigen (human) (UniProt P20138); remark: listed apart in the source
[23] = target: CD33 antigen (human) (UniProt P20138); remark: listed apart in the source
[24] = target: CD33 antigen (human) (UniProt P20138); remark: listed apart in the source
[25] = target: CD33 antigen (human) (UniProt P20138); remark: listed apart in the source

Molecule: Conjugate of 4-(4-acetyl-2-methylphenoxy)butanoic acid (10) condensed with Calicheamicin N-acetyl gamma dimethyl hydrazide and m-P67.6 (antibody)
In vitro IC50 (3H-thymidine incorporation) [1]: 0.041 ng/mL | Rel. Affinity [2]: 1.07

Molecule: Conjugate of 4-4-(3-oxobutyl)phenoxy!butanoic acid (16) condensed with Calicheamicin N-acetyl gamma dimethyl hydrazide and m-P67.6 (antibody)
In vitro IC50 (3H-thymidine incorporation) [7]: 9 ng/mL

Molecule: Conjugate of 4-(4-acetyl-2-methoxyphenoxy)butanoic acid (15) condensed with Calicheamicin N-acetyl gamma dimethyl hydrazide and m-P67.6 (antibody)
Rel. Affinity [2]: 0.8 | In vitro IC50 (3H-thymidine incorporation) [10]: 0.029 ng/mL

Molecule: Conjugate of 4-(4-acetyl-2,6-dimethoxyphenoxy)butanoic acid (14) condensed with Calicheamicin N-acetyl gamma dimethyl hydrazide and m-P67.6 (antibody)
In vitro IC50 (3H-thymidine incorporation) [12]: 0.015 ng/mL | Rel. Affinity [2]: 1.18

Molecule: Conjugate of 4-(2-acetyl-5-methoxyphenoxy!butanoic acid (17) condensed with Calicheamicin N-acetyl gamma dimethyl hydrazide and m-P67.6 (antibody)
In vitro IC50 (3H-thymidine incorporation) [13]: 0.0098 ng/mL | Rel. Affinity [2]: 1.2

B1: Conjugate of 4-(4-acetyl-2-methylphenoxy)butanoic acid (10) condensed with Calicheamicin N-acetyl gamma dimethyl hydrazide and h-P67.6 (antibody, V domains shown)
VH: EVQLVQSGAEVKKPGSSVKVSCKASGYTITDSNIHWVRQAPGQSLEWIGYIYPYNGGTDYNQKFKNRATLTVDNPTNTAYMELSSLRSEDTDFYYCVNGNPWLAYWGQGTLVTVSS
VL: DIQLTQSPSTLSASVGDRVTITCRASESLDNYGIRFLTWFQQKPGKAPKLLMYAASNQGSGVPSRFSGSGSGTEFTLTISSLQPDDFATYYCQQTKEVPWSFGQGTKVEVKR
modifications: drug-linker amide on lysine side chains, sites not stated; drug-linker amide on lysine side chains, sites not stated
Rel. Affinity [14]: 1.16 | In vitro IC50 (3H-thymidine incorporation) [15]: 0.45 ng/mL

B3: Conjugate of 4-4-(3-oxopropyl)phenoxy!butanoic acid (18) condensed with Calicheamicin N-acetyl gamma dimethyl hydrazide and h-P67.6 (antibody, V domains shown)
VH: EVQLVQSGAEVKKPGSSVKVSCKASGYTITDSNIHWVRQAPGQSLEWIGYIYPYNGGTDYNQKFKNRATLTVDNPTNTAYMELSSLRSEDTDFYYCVNGNPWLAYWGQGTLVTVSS
VL: DIQLTQSPSTLSASVGDRVTITCRASESLDNYGIRFLTWFQQKPGKAPKLLMYAASNQGSGVPSRFSGSGSGTEFTLTISSLQPDDFATYYCQQTKEVPWSFGQGTKVEVKR
modifications: drug-linker amide on lysine side chains, sites not stated; drug-linker amide on lysine side chains, sites not stated
Rel. Affinity [14]: 0.8 | In vitro IC50 (3H-thymidine incorporation) [17]: 1.1 ng/mL

B4: Conjugate of 4-(2-acetyl-5-methoxyphenoxy!butanoic acid (17) condensed with Calicheamicin N-acetyl gamma dimethyl hydrazide and h-P67.6 (antibody, V domains shown)
VH: EVQLVQSGAEVKKPGSSVKVSCKASGYTITDSNIHWVRQAPGQSLEWIGYIYPYNGGTDYNQKFKNRATLTVDNPTNTAYMELSSLRSEDTDFYYCVNGNPWLAYWGQGTLVTVSS
VL: DIQLTQSPSTLSASVGDRVTITCRASESLDNYGIRFLTWFQQKPGKAPKLLMYAASNQGSGVPSRFSGSGSGTEFTLTISSLQPDDFATYYCQQTKEVPWSFGQGTKVEVKR
modifications: drug-linker amide on lysine side chains, sites not stated; drug-linker amide on lysine side chains, sites not stated
Rel. Affinity [14]: 0.98 | In vitro IC50 (3H-thymidine incorporation) [18]: 0.088 ng/mL

B7: Conjugate of 4-(4-formyl-2-methoxyphenoxy)butanoic acid (11) condensed with Calicheamicin N-acetyl gamma dimethyl hydrazide and h-P67.6 (antibody, V domains shown)
VH: EVQLVQSGAEVKKPGSSVKVSCKASGYTITDSNIHWVRQAPGQSLEWIGYIYPYNGGTDYNQKFKNRATLTVDNPTNTAYMELSSLRSEDTDFYYCVNGNPWLAYWGQGTLVTVSS
VL: DIQLTQSPSTLSASVGDRVTITCRASESLDNYGIRFLTWFQQKPGKAPKLLMYAASNQGSGVPSRFSGSGSGTEFTLTISSLQPDDFATYYCQQTKEVPWSFGQGTKVEVKR
modifications: drug-linker amide on lysine side chains, sites not stated; drug-linker amide on lysine side chains, sites not stated
Rel. Affinity [14]: 0.73 | In vitro IC50 (3H-thymidine incorporation) [21]: 3.8 ng/mL

B9: Conjugate of 4-4-(4-fluorobenzoyl)phenoxy!butanoic acid (21) condensed with Calicheamicin N-acetyl gamma, dimethyl hydrazide and h-P67.6 (antibody, V domains shown)
VH: EVQLVQSGAEVKKPGSSVKVSCKASGYTITDSNIHWVRQAPGQSLEWIGYIYPYNGGTDYNQKFKNRATLTVDNPTNTAYMELSSLRSEDTDFYYCVNGNPWLAYWGQGTLVTVSS
VL: DIQLTQSPSTLSASVGDRVTITCRASESLDNYGIRFLTWFQQKPGKAPKLLMYAASNQGSGVPSRFSGSGSGTEFTLTISSLQPDDFATYYCQQTKEVPWSFGQGTKVEVKR
modifications: drug-linker amide on lysine side chains, sites not stated; drug-linker amide on lysine side chains, sites not stated
Rel. Affinity [14]: 0.76 | In vitro IC50 (3H-thymidine incorporation) [23]: 63 ng/mL

B11: Conjugate of 4-(4-acetylphenyl)-1-piperazinepentanoic acid (22) condensed with Calicheamicin N-acetyl gamma dimethyl hydrazide and h-P67.6 (antibody, V domains shown)
VH: EVQLVQSGAEVKKPGSSVKVSCKASGYTITDSNIHWVRQAPGQSLEWIGYIYPYNGGTDYNQKFKNRATLTVDNPTNTAYMELSSLRSEDTDFYYCVNGNPWLAYWGQGTLVTVSS
VL: DIQLTQSPSTLSASVGDRVTITCRASESLDNYGIRFLTWFQQKPGKAPKLLMYAASNQGSGVPSRFSGSGSGTEFTLTISSLQPDDFATYYCQQTKEVPWSFGQGTKVEVKR
modifications: drug-linker amide on lysine side chains, sites not stated; drug-linker amide on lysine side chains, sites not stated
Rel. Affinity [14]: 0.98 | In vitro IC50 (3H-thymidine incorporation) [25]: 12 ng/mL

Now from value to molecule:

In vitro IC50 (3H-thymidine incorporation) [3]: 0.13 ng/mL | Rel. Affinity [2]: 0.22
Molecule: Conjugate of 4-(4-formyl-2-methoxyphenoxy)butanoic acid (11) condensed with Calicheamicin N-acetyl gamma dimethyl hydrazide and m-P67.6 (antibody)

In vitro IC50 (3H-thymidine incorporation) [4]: 0.62 ng/mL | Rel. Affinity [2]: 1.21
Molecule: Conjugate of 4-4-(3-oxopropyl)phenoxy!butanoic acid (18) condensed with Calicheamicin N-acetyl gamma dimethyl hydrazide and m-P67.6 (antibody)

Rel. Affinity [2]: 0.73 | In vitro IC50 (3H-thymidine incorporation) [5]: 0.12 ng/mL
Molecule: Conjugate of 4-formylbenzenepropanoic acid (12) condensed with Calicheamicin N-acetyl gamma dimethyl hydrazide and m-P67.6 (antibody)

In vitro IC50 (3H-thymidine incorporation) [6]: 0.0067 ng/mL | Rel. Affinity [2]: 0.66
Molecule: Conjugate of 4-(2-acetyl-1-naphthalenyl)oxy! butanoic acid (20) condensed with Calicheamicin N-acetyl gamma dimethyl hydrazide and m-P67.6 (antibody)

Rel. Affinity [2]: 0.7 | In vitro IC50 (3H-thymidine incorporation) [8]: 0.087 ng/mL
Molecule: Conjugate of 4-(4-formylphenoxy)butanoic acid (9) condensed with Calicheamicin N-acetyl gamma dimethyl hydrazide and m-P67.6 (antibody)

Rel. Affinity [2]: 1.08 | In vitro IC50 (3H-thymidine incorporation) [9]: 0.062 ng/mL
Molecule: Conjugate of 4-(2,3-Dimethoxy-5-formylphenoxy)butanoic acid (13) condensed with Calicheamicin N-acetyl gamma dimethyl hydrazide and m-P67.6 (antibody)

In vitro IC50 (3H-thymidine incorporation) [11]: 0.38 ng/mL | Rel. Affinity [2]: 1
Molecule: Conjugate of 4-(3-formylphenoxy)butanoic acid (8) condensed with Calicheamicin N-acetyl gamma dimethyl hydrazide and m-P67.6 (antibody)

Rel. Affinity [14]: 0.78 | In vitro IC50 (3H-thymidine incorporation) [16]: 0.23 ng/mL
B2: Conjugate of 4-(4-acetyl-2-methoxyphenoxy)butanoic acid (15) condensed with Calicheamicin N-acetyl gamma dimethyl hydrazide and h-P67.6 (antibody, V domains shown)
VH: EVQLVQSGAEVKKPGSSVKVSCKASGYTITDSNIHWVRQAPGQSLEWIGYIYPYNGGTDYNQKFKNRATLTVDNPTNTAYMELSSLRSEDTDFYYCVNGNPWLAYWGQGTLVTVSS
VL: DIQLTQSPSTLSASVGDRVTITCRASESLDNYGIRFLTWFQQKPGKAPKLLMYAASNQGSGVPSRFSGSGSGTEFTLTISSLQPDDFATYYCQQTKEVPWSFGQGTKVEVKR
modifications: drug-linker amide on lysine side chains, sites not stated; drug-linker amide on lysine side chains, sites not stated

Rel. Affinity [14]: 0.73 | In vitro IC50 (3H-thymidine incorporation) [19]: 1 ng/mL
B5: Conjugate of 4-formylbenzenepropanoic acid (12) condensed with Calicheamicin N-acetyl gamma dimethyl hydrazide and h-P67.6 (antibody, V domains shown)
VH: EVQLVQSGAEVKKPGSSVKVSCKASGYTITDSNIHWVRQAPGQSLEWIGYIYPYNGGTDYNQKFKNRATLTVDNPTNTAYMELSSLRSEDTDFYYCVNGNPWLAYWGQGTLVTVSS
VL: DIQLTQSPSTLSASVGDRVTITCRASESLDNYGIRFLTWFQQKPGKAPKLLMYAASNQGSGVPSRFSGSGSGTEFTLTISSLQPDDFATYYCQQTKEVPWSFGQGTKVEVKR
modifications: drug-linker amide on lysine side chains, sites not stated; drug-linker amide on lysine side chains, sites not stated

Rel. Affinity [14]: 1.16 | In vitro IC50 (3H-thymidine incorporation) [20]: 1.1 ng/mL
B6: Conjugate of 4-(2,3-dimethoxy-5-formylphenoxy)butanoic acid (13) condensed with Calicheamicin N-acetyl gamma dimethyl hydrazide and h-P67.6 (antibody, V domains shown)
VH: EVQLVQSGAEVKKPGSSVKVSCKASGYTITDSNIHWVRQAPGQSLEWIGYIYPYNGGTDYNQKFKNRATLTVDNPTNTAYMELSSLRSEDTDFYYCVNGNPWLAYWGQGTLVTVSS
VL: DIQLTQSPSTLSASVGDRVTITCRASESLDNYGIRFLTWFQQKPGKAPKLLMYAASNQGSGVPSRFSGSGSGTEFTLTISSLQPDDFATYYCQQTKEVPWSFGQGTKVEVKR
modifications: drug-linker amide on lysine side chains, sites not stated; drug-linker amide on lysine side chains, sites not stated

Rel. Affinity [14]: 0.67 | In vitro IC50 (3H-thymidine incorporation) [22]: 99 ng/mL
B8: Conjugate of 4-4-(4-fluorobenzoyl)phenoxy!butanoic acid (21) condensed with Calicheamicin N-acetyl gamma dimethyl hydrazide and h-P67.6 (antibody, V domains shown)
VH: EVQLVQSGAEVKKPGSSVKVSCKASGYTITDSNIHWVRQAPGQSLEWIGYIYPYNGGTDYNQKFKNRATLTVDNPTNTAYMELSSLRSEDTDFYYCVNGNPWLAYWGQGTLVTVSS
VL: DIQLTQSPSTLSASVGDRVTITCRASESLDNYGIRFLTWFQQKPGKAPKLLMYAASNQGSGVPSRFSGSGSGTEFTLTISSLQPDDFATYYCQQTKEVPWSFGQGTKVEVKR
modifications: drug-linker amide on lysine side chains, sites not stated; drug-linker amide on lysine side chains, sites not stated

Rel. Affinity [14]: 1.07 | In vitro IC50 (3H-thymidine incorporation) [24]: 0.24 ng/mL
B10: Conjugate of 4-(4-acetyl-2,6-dimethoxyphenoxy)butanoic acid (14) condensed with Calicheamicin N-acetyl gamma dimethyl hydrazide and h-P67.6 (antibody, V domains shown)
VH: EVQLVQSGAEVKKPGSSVKVSCKASGYTITDSNIHWVRQAPGQSLEWIGYIYPYNGGTDYNQKFKNRATLTVDNPTNTAYMELSSLRSEDTDFYYCVNGNPWLAYWGQGTLVTVSS
VL: DIQLTQSPSTLSASVGDRVTITCRASESLDNYGIRFLTWFQQKPGKAPKLLMYAASNQGSGVPSRFSGSGSGTEFTLTISSLQPDDFATYYCQQTKEVPWSFGQGTKVEVKR
modifications: drug-linker amide on lysine side chains, sites not stated; drug-linker amide on lysine side chains, sites not stated
